2 substances from PMC7971519 can be followed below.

The assay concerns the target PRRSV nonstructural protein 2 transframe product (nsp2TF) (porcine reproductive and respiratory syndrome virus 2 (PRRSV-2), isolate SD95-21). The assay is described as follows: co-IP; lysates of PRRSV-infected MARC-145 cells collected at 8, 10 and 12 hpi; IP with rabbit anti-nsp2TF pAb or anti-nsp2 pAb (C-terminal peptides); blots probed with anti-GP5 and anti-M mAbs; densitometry; mock-infected lysate as control.

“PRRSV membrane (M) protein (natural protein)” came in with a fold more M protein co-precipitated than in the nsp2 IP, 8 hpi of 3.38 fold; a fold more M protein co-precipitated than in the nsp2 IP, 10 hpi of 3.44 fold; a fold more M protein co-precipitated than in the nsp2 IP, 12 hpi of 2.77 fold.
Consider “PRRSV GP5 glycoprotein (natural protein)”, for which the fold more GP5 co-precipitated than in the nsp2 IP, 8 hpi was 3.39 fold; the fold more GP5 co-precipitated than in the nsp2 IP, 10 hpi was determined as 3.26 fold; the fold more GP5 co-precipitated than in the nsp2 IP, 12 hpi was 3.36 fold.
